Primed or numbered codes have the meaning given here. Where no end group is shown, it is not given here. [ ]: non-standard residue; d: D form. pS = N[C@@H](COP(=O)(O)O)C(=O)O; FITC′ = not defined here
T1: 14-3-3 epsilon (14-3-3ε, YWHAE) (Mus musculus, UniProt P62259)
T1 construct: full-length mouse 14-3-3ε, His-tagged, from Sf9 cells
T1 sequence (P62259 1-255): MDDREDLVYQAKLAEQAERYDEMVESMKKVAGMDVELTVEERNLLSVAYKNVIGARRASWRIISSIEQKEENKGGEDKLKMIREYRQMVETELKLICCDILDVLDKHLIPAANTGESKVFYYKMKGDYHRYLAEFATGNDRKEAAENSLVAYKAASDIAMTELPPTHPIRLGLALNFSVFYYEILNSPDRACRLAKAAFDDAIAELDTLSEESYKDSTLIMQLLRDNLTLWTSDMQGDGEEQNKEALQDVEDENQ

T2: His-14-3-3ε (full-length mouse 14-3-3ε, purified) (mouse, UniProt P62259 1-255)
T2 construct: 14-3-3 epsilon, mouse, full length; also called 14-3-3 epsilon; 14-3-3ɛ; source: Sf9 (Bac-to-Bac baculovirus), purified (Ni-NTA), at least 70% pure
T2 sequence (looked up): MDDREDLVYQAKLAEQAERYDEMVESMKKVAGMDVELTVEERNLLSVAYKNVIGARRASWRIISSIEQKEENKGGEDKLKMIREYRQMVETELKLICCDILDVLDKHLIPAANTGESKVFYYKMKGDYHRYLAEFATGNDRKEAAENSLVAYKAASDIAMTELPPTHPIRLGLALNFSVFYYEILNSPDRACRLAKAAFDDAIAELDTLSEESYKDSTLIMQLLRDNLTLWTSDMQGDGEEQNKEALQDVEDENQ


What was measured:
[1] = target: T1, 14-3-3 epsilon (14-3-3ε, YWHAE); experiment: ITC with purified protein; supported by CETSA/ITDRF-CETSA in macrophage lysates and FP displacement of p-TFEB peptide (IC50 […]); type: binding
[2] = target: T2, His-14-3-3ε (full-length mouse 14-3-3ε, …); experiment: fluorescence polarisation; direct binding: His-14-3-3ε serially diluted (1-4000 nM) against FITC-labelled peptide (10 nM solution); 25 mM HEPES pH 7.5, 100 mM NaCl, 1 mg/ml BSA, 0.05% CHAPS; 60 min at 25 °C; conditions: both partners purified

Molecule	Kd [1]	Kd [2]
O=C1C[C@@H](c2ccc(O)cc2)Oc2cc(O)cc(O)c21 [NGN, naringenin]	30600 ± 7990 nM	–
LVGVTSS[pS]CPADLTQ-{FITC′} (also called p-TFEB-FITC; source: synthetic peptide) [phosphorylated TFEB peptide (p-TFEB peptide, LVGVTSSpSCPADLTQ) with C-terminal FITC]	–	9.68 nM
MARSH[pS]YPAKKK-{FITC′} (control phosphopeptide with the conventional 14-3-3 motif RSXpSXP; source: synthetic peptide) [control phosphor-peptide (p-control peptide, MARSHpSYPAKKK) with C-terminal FITC]	–	2.4 nM

From paper PMC8885854, “Targeting macrophage TFEB-14-3-3 epsilon Interface by naringenin inhibits abdominal aortic aneurysm” (Cell Discovery, 2022)
